Data as given in patent US20260263521A1, “ANTI-CD200R1 ANTIBODY AND USE THEREOF” (AIMED BIO INC., priority 2023, published 2026).
Numbering of substitutions follows the chain as printed. Names and notes keep the numbering of the source. Values belong to the molecule of their own block, whether it stands above or below them.

Legend:
monkey CD200R1 = experiment: ELISA binding to monkey CD200R1; conditions: Example 14
Description: Therefore, the LC D51 and LC D92 sequences were not substituted during the optimization process. However, since LC N30 and LC N31 can play an important role in the specific binding of antibodies as paratopes, the sequences were substituted and optimized. Through rational design, LC S52 and LC S94 were substituted with K and R, respectively, to derive P001009v1, and LC S52 and LC D93 were substituted with K and R, respectively, to derive P001009v2. Further, P001009v3, in which LC N30 was substituted with S, and P001009v4, in which LC N31 was substituted with K, were derived and produced, and the binding ability to human, mouse, and monkey CD200R1 was analyzed by ELISA (FIG. 15). […] Both […] and variants thereof had very weak binding ability to mouse CD200R1 at concentrations up to 300 nM.

human CD200R1 [1] = biological target: T1, human CD200R1 (Homo sapiens, UniProt Q8TD46); experiment: SPR binding kinetics, human CD200R1; conditions: hCD200R1-his captured on anti-His CM5 chip, 1:1 Langmuir fit
T1 sequence (Q8TD46 25-348): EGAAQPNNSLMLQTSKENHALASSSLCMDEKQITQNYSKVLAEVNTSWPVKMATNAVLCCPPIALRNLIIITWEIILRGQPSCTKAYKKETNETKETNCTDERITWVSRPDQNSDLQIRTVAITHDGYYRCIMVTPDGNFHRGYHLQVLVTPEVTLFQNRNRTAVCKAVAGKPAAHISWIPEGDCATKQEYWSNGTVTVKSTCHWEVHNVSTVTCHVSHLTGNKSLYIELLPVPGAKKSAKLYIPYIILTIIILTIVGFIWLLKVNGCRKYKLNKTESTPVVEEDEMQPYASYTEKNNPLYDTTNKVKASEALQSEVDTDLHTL
Protocol: (§1) The CD200R1-specific binding ability of the antibodies (P001009 wt, P001009 v1, P001009 v2, P001009 v3, P001009 v4) selected in Example 14 was analyzed using surface plasma resonance (SPR). For the experiment, 30 μg/mL of an anti-histidine antibody was conjugated to a CM5 biacore chip via an amine bond while allowing to flow at 10 μl/min (10,000 RU). Then, 0.25 μg/mL of human or cynomolgus CD200R1 with dual His-tags was captured onto the completed chip for 60 seconds, and the binding ability of each antibody was analyzed. All experiments were performed by association of antibodies for 120 seconds and dissociation of antibodies for 600 seconds. The resulting graphs were fitted using a 1:1 Langmuir binding kinetic model (FIG. 16), and the kinetics of each antibody were calculated.

human CD200R1 [2] = biological target: T1, human CD200R1; experiment: ELISA binding to human CD200R1; conditions: for binding ability to human CD200R1 compared to parent: ELISA, Example 14; for affinity compared with P001018 clone: scFv mutants, antigen binding (ELISA) and cell binding (FACS)
Protocol: 96-well plates were coated with human CD200R1 (R&D systems, 3414-CD) and mouse CD200R1 protein (R&D systems, 2554-CD) at a concentration of 2 μg/mL at 4° C. for 16 hours and then were blocked with 3% skim milk. The result was treated with the antibodies at concentrations of 300 nM, 60 nM, 12 nM, 2.4 nM, 0.48 nM, 0.096 nM, and 0.0192 nM, and reacted at room temperature for 2 hours.
The result was washed with PBST and distilled water, the samples were bound with a goat-derived HRP-conjugated anti-human antibody (Invitrogen, 31482, Goat anti-Human IgG F(ab′)2 Secondary Antibody, HRP) for 1 hour at room temperature, and then washed again with PBST and distilled water. Color was developed with a TMB substrate solution (Thermo Scientific, 34029, 1-Step™ TMB-ELISA Ultra Substrate Solution). The color reaction was stopped with stop solution (Invitrogen, SS04, ELISA Stop Solution). The absorbance was measured at an optical density of 450 nm.

cynomolgus CD200R1 = experiment: SPR binding kinetics, cynomolgus CD200R1; conditions: cynomolgus CD200R1-his captured on anti-His CM5 chip, 1:1 Langmuir fit
Protocol: as §1

[3] = biological target: T2, CD200R1 on Jurkat-CD200R1 cells (Homo sapiens, UniProt Q8TD46); experiment: Cell binding assay (flow cytometry), Jurkat-CD200R1 cells; assay type: cell-based; conditions: Jurkat-CD200R1 cells; 500 nM; IgG1 form
T2 construct: host or cells: Jurkat
T2 sequence (Q8TD46 25-348): T1 sequence (Q8TD46 25-348)
Protocol: (§2) The binding ability of the antibodies identified using unique multifaceted antibody discovery technology was identified in HH (CRL-2105) cells, which endogenously express CD200R1, and Jurkat-CD200R1 cells (Source: DiscoverX), which were generated by intranuclear injection of CD200R1 cDNA.
(§3) HH and Jurkat-CD200R1 cells were maintained in RPMI 1640 medium supplemented with 10% heat-inactivated FBS and 1% Penicillin/Streptomycin (P/S). The cells were washed by centrifugation at 130 g for 5 minutes. The cells were seeded onto 96-well round-bottom plates (SPL, #34296) at a density of 1×10^5 cells/well in Flow cytometry staining buffer (Invitrogen, #00-4222-26) or FACS buffer. The cells were treated with all 16 substances and the positive control LY3454738 (US 2020/0087395, I-4P, at Eli Lilly) a concentration of 500 nM in the IgG1 form. After incubation for 1 hour at 4° C., the cells were treated with Alexa-647 Goat anti-human IgG (H+L) cross-adsorbed secondary antibody (Invitrogen, #A21445) and incubated at 4° C. for an additional 30 minutes. […]
(§4) Cell-binding ability was determined in the same manner as in Example 12. For the six active substances primarily selected in Example 12, the isotype was changed to IgG4 or the LALAPG gene was mutated, and binding activity was determined in the two cell lines mentioned above.
(§5) Binding ability was determined in HH, an endogenous T cell line with high CD200R1 expression, and two additional overexpressing cell lines: U937-CD200R overexpressing cells, generated by intranuclear injection of human CD200R1 CDNA into the monocytic cell line U937 (CRL-1593.2) (Source: UMC Utrecht, the Netherlands) and Jurkat-CD200R overexpressing cells, were also cells engineered using a similar method.
(§6) All cell lines were maintained in RPMI 1640 medium supplemented with 10% heat-inactivated FBS and 1% penicillin/streptomycin (P/S) and cell binding was determined in the same manner as in Example 12. […]
(§7) Specific binding ability was determined using P001009 WT and antibody-optimized mutants, P001009v1, P001009v2, P001009v3, and P001009v4. […]

[4] = biological target: T3, CD200R1 on HH (CRL-2105) cells (Homo sapiens, UniProt Q8TD46); experiment: Cell binding assay (flow cytometry), HH cells; assay type: cell-based; conditions: HH cells; 500 nM; IgG1 form
T3 construct: HH (CRL-2105) cells, which endogenously express CD200R1; host or cells: HH (CRL-2105) cells
T3 sequence (Q8TD46 25-348): T1 sequence (Q8TD46 25-348)
Protocol: as §2, §3, §4, §5, §6, §7

binding ability to monkey CD200R1 compared to parent (monkey CD200R1): significantly improved
Ka (cynomolgus CD200R1): 2.82e+06 M⁻¹ s⁻¹
B1: P001009v2: P001009 variant, LC S52 and LC D93 substituted with K and R; VH SEQ ID NO: 79 (antibody, V domains shown)
VH: EVQLLESGGGLVQPGGSLRLSCAASGFTFSSYDMSWVRQAPGKGLEWVSWISHGGGSIYYADSVKGRFTISRDNSKNTLYLQMNSLRAEDTAVYYCARDAPAYSAPLFDYWGQGTLVTVSS
VL: QSVLTQPPSASGTPGQRVTISCSGSSSNIGNNAVNWYQQLPGTAPKLLIYYDKNRPSGVPDRFSGSKSGTSASLAISGLRSEDEADYYCAAWDRSLSGYVFGGGTKLTVL
Ka (human CD200R1 [1]): 7.52e+06 M⁻¹ s⁻¹
binding ability to human CD200R1 compared to parent (human CD200R1 [2]): reduced

binding ability to monkey CD200R1 compared to parent (monkey CD200R1): improved
Ka (cynomolgus CD200R1): 3.71e+06 M⁻¹ s⁻¹
B2: P001009v4: P001009 variant, LC N31 substituted with K; VH SEQ ID NO: 79 (antibody, V domains shown)
VH: B1 VH
VL: B1 VL with N32K, K53S, R94D
Ka (human CD200R1 [1]): 6.74e+06 M⁻¹ s⁻¹
binding ability to human CD200R1 compared to parent (human CD200R1 [2]): reduced

B3: H3-Y102K: P001018 scFv mutant, SEQ ID NO: 164 (protein)
scFv: QVQLVQSGAEVKKPGASVKVSCKASGYTFTSYVMHWVRQAPGQGLEWMGYINPYNDDTNYNEKFKGRVTMTRDTSTSTVYMELSSLRSEDTAVYYCAREDYYGSRWGKWGQGTLVTVSSGGGGSGGGGSGGGGSDIVLTQSPASLAVSPGQRATITCRASKSVSTSGYSYMHWYQQKPGQPPKLLIYLASNLESGVPARFSGSGSGTDFTLTINPVEANDTANYYCQHSRELLTFGQGTKVEIK
affinity compared with P001018 clone (human CD200R1 [2]): enhanced affinity

B4: L3-L95D: P001018 scFv mutant, SEQ ID NO: 170 (protein)
scFv: B3 scFv with K108Y, L233D
affinity compared with P001018 clone (human CD200R1 [2]): enhanced affinity

B5: L3-R92H: P001018 scFv mutant, SEQ ID NO: 166 (protein)
scFv: B3 scFv with K108Y, R230H
affinity compared with P001018 clone (human CD200R1 [2]): enhanced affinity

B6: L3-T96R: P001018 scFv mutant, SEQ ID NO: 171 (protein)
scFv: B3 scFv with K108Y, T234R
affinity compared with P001018 clone (human CD200R1 [2]): enhanced affinity

B7: L3-R92S: P001018 scFv mutant, SEQ ID NO: 167 (protein)
scFv: B3 scFv with K108Y, R230S
affinity compared with P001018 clone (human CD200R1 [2]): enhanced affinity

B8: L3-L94H: P001018 scFv mutant, SEQ ID NO: 169 (protein)
scFv: B3 scFv with K108Y, L232H
affinity compared with P001018 clone (human CD200R1 [2]): enhanced affinity

B9: H3-Y102T: P001018 scFv mutant, SEQ ID NO: 165 (protein)
scFv: B3 scFv with K108T
affinity compared with P001018 clone (human CD200R1 [2]): enhanced affinity

B10: L3-L94S: P001018 scFv mutant, SEQ ID NO: 168 (protein)
scFv: B3 scFv with K108Y, L232S
affinity compared with P001018 clone (human CD200R1 [2]): enhanced affinity

B11: ch1F1: clone discovered using hybridoma technology (1F1), tested in IgG1 form (antibody, V domains shown)
VH: QVQLQQPGAEFVKPGAPVKLSCKASGYTFTSYWMNWVKQRPGRGLEWIGRIDPADSEIHYNQKFKDKATLTVDKSSSTAYIQFSSLTSEDSAVYYCARSGGWLPGFAYWGQGTLVTVSA
VL: ENVLTQSPAIMSASPGEKVTMTCSASSSLIYMHWYQQKSSTSPKLWIYDTSKLASGVPGRFSGSGSGNSYSLTINSMEAEDVATYYCFQGSGYPLMYTFGGGTKLEIK
cell binding ability [3]: significant binding ability
cell binding ability [4]: significant binding ability
